Data reported in US20230279126A1 (published 2023).
Residue numbers refer to the chain shown, from its start.

T1: extracellular domain of mouse IL23R (mIL23R ECD) (mouse, UniProt Q8K4B4 24-374)
T1 construct: The immunogen was an ECD-human IgG1 hinge-Fc fusion
T1 sequence: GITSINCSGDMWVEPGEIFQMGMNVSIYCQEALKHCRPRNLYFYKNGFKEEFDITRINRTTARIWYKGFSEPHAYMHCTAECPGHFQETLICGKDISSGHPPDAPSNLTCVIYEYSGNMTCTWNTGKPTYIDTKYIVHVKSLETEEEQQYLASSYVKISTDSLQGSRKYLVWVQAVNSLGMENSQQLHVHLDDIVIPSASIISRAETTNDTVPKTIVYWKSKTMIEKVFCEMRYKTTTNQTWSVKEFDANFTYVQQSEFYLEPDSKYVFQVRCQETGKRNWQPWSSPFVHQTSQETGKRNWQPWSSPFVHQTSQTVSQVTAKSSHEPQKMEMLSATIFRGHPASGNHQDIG

B1: mIL23R VHH6 (VHH)
VHH: QVQLQESGGGSVQAGGSLRLSCAASGYTSGNYWMGWFRQAPGKEREGVATLWTGGASTFYGDSVKGRFTISRDNFKNTLYLQMNSLKVEDTAMYYCAADPALRLGANILRPAEYKYWGQGTQVTVSS
notes: Phagemid clone with his-tag, periplasmic extract
B2: mIL23R VHH26 (VHH)
VHH: QVQLQESGGGSVQAGGSLRLSCAASGYTFCMAWFRQAPGKEREGVARFYTRDGYTYYSDSVKGRFTISQNNAKNTLYLQMNSLKSEDTAMYYCAADLTRCSSNKNDFRYWGQGTQVTVSS
notes: as for B1
B3: mIL23R VHH22 (VHH)
VHH: B2 VHH with G53S
notes: as for B1
B4: mIL23R VHH43 (VHH)
VHH: B2 VHH with N70D
notes: as for B1
B5: mIL23R VHH5 (VHH)
VHH: B2 VHH with T98A
notes: as for B1
B6: mIL23R VHH24 (VHH)
VHH: B2 VHH with A24V, D59G
notes: as for B1
B7: mIL23R VHH3 (VHH)
VHH: QVQLQESGGGSVQAGGSLRLSCTASVNTYCEYNMSWYRQAPGKEREFVSGVDSDGSTRYSESVKGRFTISQDNAKNTMYLQMNGLKPEDTAMYYCKTYVCTFCSGNSCYYEYKYYYEGQGTQVTVSS
notes: as for B1
B8: mIL23R VHH12 (VHH)
VHH: QVQLQESGGGSVQAGGSLRLSCAASGYTYSSCTMGWYRQAPGKERELVSMLISDGSTFYADSVKGRFTFSQENAKNTVYLQMNSLKPEDTAMYYCGCATLGSRTVWGQGTQVTVSS
notes: as for B1
B9: mIL23R VHH10 (VHH)
VHH: B8 VHH with Y27D, E46D, I52M, S53G, V105I
notes: as for B1
B10: mIL23R VHH11 (VHH)
VHH: B8 VHH with N76S
notes: as for B1
B11: mIL23R VHH8 (VHH)
VHH: B8 VHH with A23T, G26R, L51V, I52F, V105I
notes: as for B1
B12: mIL23R VHH36 (VHH)
VHH: B8 VHH with Y27D, E46D, L51V, I52F, V105I
notes: as for B1
B13: mIL23R VHH1 (VHH)
VHH: B8 VHH with N73Y
notes: as for B1
B14: mIL23R VHH16 (VHH)
VHH: B8 VHH with Y27D, E46D, I52M, S53G, S84N, V105I
notes: as for B1
B15: mIL23R VHH27 (VHH)
VHH: B8 VHH with F69S
notes: as for B1
B16: mIL23R VHH25 (VHH)
VHH: B8 VHH with Y94F
notes: as for B1
B17: mIL23R VHH15 (VHH)
VHH: B8 VHH with L51V, I52F, V105I
notes: as for B1
B18: mIL23R VHH18 (VHH)
VHH: QVQLQESGGGLVQPGGSLRLSCAASGFTFRLTAMRWVRQAPGKGLEWVSGIDSRGSTIYADSVKGRFTISKDNAKNTLYLQLNSLKTEDTAMYYCAQGVYGDTYSGSQGTQVTVSS
notes: as for B1
B19: mIL23R VHH13 (VHH)
VHH: B18 VHH with A24T, T32A
notes: as for B1
B20: mIL23R VHH44 (VHH)
VHH: B18 VHH with T32S, L45F
notes: as for B1
B21: mIL23R VHH40 (VHH)
VHH: B18 VHH with T87S
notes: as for B1
B22: mIL23R VHH34 (VHH)
VHH: B18 VHH with Y104H
notes: as for B1
B23: mIL23R VHH46 (VHH)
VHH: B18 VHH with T32S, N73D
notes: as for B1
B24: mIL23R VHH28 (VHH)
VHH: B18 VHH with K71R, T90A
notes: as for B1
B25: mIL23R VHH23 (VHH)
VHH: B18 VHH with T28N, T32Y, L45V, R54G
notes: as for B1
B26: mIL23R VHH19 (VHH)
VHH: B18 VHH with T32S
notes: as for B1
B27: mIL23R VHH45 (VHH)
VHH: B18 VHH with T32S, K64E
notes: as for B1
B28: mIL23R VHH42 (VHH)
VHH: B18 VHH with R30S, L31N, T32Y
notes: as for B1
B29: mIL23R VHH30 (VHH)
VHH: B18 VHH with Q108L
notes: as for B1
B30: mIL23R VHH17 (VHH)
VHH: B18 VHH with L11S, P14A
notes: as for B1
B31: mIL23R VHH2 (VHH)
VHH: B18 VHH with L11S, P14A, R19T, A23T, S25P, T32A
notes: as for B1
B32: mIL23R VHH31 (VHH)
VHH: B18 VHH with K71R
notes: as for B1
B33: mIL23R VHH9 (VHH)
VHH: B18 VHH with A24T, L45V, R54A, L82M
notes: as for B1
B34: mIL23R VHH29 (VHH)
VHH: QVQLQESGGGLVQPGGSLRLSCAASGFTFSTSAMTWVRQAPGKGLDWVSGIDSGGTTVYADSVKGRFTISKDNAKNTLYLQMNSLKTEDTAVYYCATGLPWGNTWRTRGQGTQVTVSS
notes: as for B1
B35: mIL23R VHH37 (VHH)
VHH: B34 VHH with A24T, T31S, S32G, R108T
notes: as for B1
B36: mIL23R VHH7 (VHH)
VHH: B34 VHH with T31R, K71R, N73S, T97I
notes: as for B1
B37: mIL23R VHH14 (VHH)
VHH: B34 VHH with S30R, K71R, N73S, T97M
notes: as for B1
B38: mIL23R VHH21 (VHH)
VHH: B34 VHH with A24T, T31S, R108T
notes: as for B1
B39: mIL23R VHH41 (VHH)
VHH: B34 VHH with S21T
notes: as for B1
B40: mIL23R VHH33 (VHH)
VHH: B34 VHH with A23T, A24T, T31S, R108T
notes: as for B1
B41: mIL23R VHH20 (VHH)
VHH: B34 VHH with T31S, F67A, S70L
notes: as for B1
B42: mIL23R VHH35 (VHH)
VHH: B34 VHH with S21A, A23S, T31S, F67A, S70L
notes: as for B1
B43: mIL23R VHH38 (VHH)
VHH: B34 VHH with T104I
notes: as for B1
B44: mIL23R VHH39 (VHH)
VHH: B34 VHH with T31R, K71R, N73S, S84G, T97I
notes: as for B1
B45: mIL23R VHH32 (VHH)
VHH: B34 VHH with Q13R, T31R, K71R, N73S, T97I
notes: as for B1
B46: mIL23R VHH4 (VHH)
VHH: QVQLQESGGGSVQAGGSLRLSCAASGYTYSNNCMGWFRQAPGKDRERIANIYTGGGRTTYADSVKGRFTISQDSAKSTVYLQMNSLKPEDTAMYYCAAGSCGSARSEYSYWGQGTQVTVSS
notes: as for B1
B47: hIL12Rb1_VHH1 (VHH)
VHH: QVQLQESGGGSVQAGGSLRLSCVASGYGYCGYDMSWYRQAPGKEREFVALITSDRSISYEDSVKARFIISRDNAANTGYLDMTRLTPDDTAIYYCKTSAAARESSWCRSRYRVASWGQGTQVTVSS
notes: as for B1

Molecular target: T1, extracellular domain of mouse IL23R …
Assay: periplasmic extract ELISA (PE-ELISA) of phage clones, colorimetric
Summary of the method: (§1)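 VHH domains came from camels immunized in sequence with human and mouse receptor extracellular domain–human IgG1 hinge–Fc fusion proteins. Blood RNA was transcribed, and the approximately 400 bp VHH fragment was cloned in frame with a his-tag into a phagemid in E. coli. The phage library went through multiple rounds of biopanning on the human or mouse extracellular domain. Individual clones were tested by periplasmic extract ELISA in 96-well plates, with selective binding read colorimetrically.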

**Q.** Does B1 bind?
**A.** binds

**Q.** Does B2 bind?
**A.** binds

**Q.** Does B3 bind?
**A.** binds

**Q.** Does B4 bind?
**A.** binds

**Q.** Does B5 bind?
**A.** binds

**Q.** Does B6 bind?
**A.** binds

**Q.** Does B7 bind?
**A.** binds

**Q.** Does B8 bind?
**A.** binds

**Q.** Does B9 bind?
**A.** binds

**Q.** Does B10 bind?
**A.** binds

**Q.** Does B11 bind?
**A.** binds

**Q.** Does B12 bind?
**A.** binds

**Q.** Does B13 bind?
**A.** binds

**Q.** Does B14 bind?
**A.** binds

**Q.** Does B15 bind?
**A.** binds

**Q.** Does B16 bind?
**A.** binds

**Q.** Does B17 bind?
**A.** binds

**Q.** Does B18 bind?
**A.** binds

**Q.** Does B19 bind?
**A.** binds

**Q.** Does B20 bind?
**A.** binds

**Q.** Does B21 bind?
**A.** binds

**Q.** Does B22 bind?
**A.** binds

**Q.** Does B23 bind?
**A.** binds

**Q.** Does B24 bind?
**A.** binds

**Q.** Does B25 bind?
**A.** binds

**Q.** Does B26 bind?
**A.** binds

**Q.** Does B27 bind?
**A.** binds

**Q.** Does B28 bind?
**A.** binds

**Q.** Does B29 bind?
**A.** binds

**Q.** Does B30 bind?
**A.** binds

**Q.** Does B31 bind?
**A.** binds

**Q.** Does B32 bind?
**A.** binds

**Q.** Does B33 bind?
**A.** binds

**Q.** Does B34 bind?
**A.** binds

**Q.** Does B35 bind?
**A.** binds

**Q.** Does B36 bind?
**A.** binds

**Q.** Does B37 bind?
**A.** binds

**Q.** Does B38 bind?
**A.** binds

**Q.** Does B39 bind?
**A.** binds

**Q.** Does B40 bind?
**A.** binds

**Q.** Does B41 bind?
**A.** binds

**Q.** Does B42 bind?
**A.** binds

**Q.** Does B43 bind?
**A.** binds

**Q.** Does B44 bind?
**A.** binds

**Q.** Does B45 bind?
**A.** binds

**Q.** Does B46 bind?
**A.** binds

Molecular target: T2, extracellular domain of human IL12RB1 (hIL12Rb1 ECD) (human, UniProt P42701 24-545)
T2 construct: The immunogen was a fusion of the ECD with the human IgG1 hinge and Fc; also called IL12Rβ1; CD212
Assay: as above
Summary of the method: as §1

**Q.** Does B47 bind?
**A.** binds
